Assay results taken from patent US20170313756A1 (Sanofi, published 2017).
[ ]: non-standard residue; d: D form. The star is where a group is joined. Butanoyl(4-Ph) = O=C(CCCc1ccccc1)*; Stearyl = stearyl group

B1: peptide 894 (peptide)
peptide: VPKGWRFHEMSYS
modifications: N-terminal acetyl (Ac); C-terminal amide; L-Arg at 6; D-isomers at all other residues except Gly 4
B2: peptide 872 (peptide)
peptide: VPKGWRFREMSYS
modifications: N-terminal acetyl (Ac); C-terminal amide; D-isomers at all residues except Gly 4
B3: peptide 895 (peptide)
peptide: VPKGWRFHEMSYS
modifications: N-terminal acetyl (Ac); C-terminal amide; L-His at 8; D-isomers at all other residues except Gly 4
B4: peptide 878 (peptide)
peptide: VPKGWRFHEXSYS
modifications: N-terminal acetyl (Ac); C-terminal amide; D-buthionine at 10; D-isomers at all residues except Gly 4
B5: peptide 869 (peptide)
peptide: VPKGWRXHEMSYS
modifications: N-terminal acetyl (Ac); C-terminal amide; D-cyclohexylalanine (D-Cha) at 7; D-isomers at all residues except Gly 4
B6: retro-inverso α-MSH (peptide)
peptide: VPKGWRFHEMSYS
modifications: N-terminal acetyl (Ac); C-terminal amide; D-isomers at all residues except Gly 4
B7: peptide 892 (peptide)
peptide: SYSMEHXRWGKPV
modifications: N-terminal acetyl (Ac); C-terminal amide; L-cyclohexylalanine (L-Cha) at 7
notes: also called analog 892
B8: peptide 886 (peptide)
peptide: Ac-[dV][dP][dK]G[dW][dR][dF][dH][dS][dI][dI][dS][dS]-NH2
SMILES: CC[C@@H](C)[C@@H](NC(=O)[C@@H](CO)NC(=O)[C@@H](Cc1c[nH]cn1)NC(=O)[C@@H](Cc1ccccc1)NC(=O)[C@@H](CCCNC(=N)N)NC(=O)[C@@H](Cc1c[nH]c2ccccc12)NC(=O)CNC(=O)[C@@H](CCCCN)NC(=O)[C@H]1CCCN1C(=O)[C@H](NC(C)=O)C(C)C)C(=O)N[C@@H](C(=O)N[C@H](CO)C(=O)N[C@H](CO)C(N)=O)[C@H](C)CC
B9: peptide 880 (peptide)
peptide: Ac-[dV][dP][dK]G[dW][dR]F[dH][dS][dI][dI][dS][dS]-NH2
SMILES: CC[C@@H](C)[C@@H](NC(=O)[C@@H](CO)NC(=O)[C@@H](Cc1c[nH]cn1)NC(=O)[C@H](Cc1ccccc1)NC(=O)[C@@H](CCCNC(=N)N)NC(=O)[C@@H](Cc1c[nH]c2ccccc12)NC(=O)CNC(=O)[C@@H](CCCCN)NC(=O)[C@H]1CCCN1C(=O)[C@H](NC(C)=O)C(C)C)C(=O)N[C@@H](C(=O)N[C@H](CO)C(=O)N[C@H](CO)C(N)=O)[C@H](C)CC
B10: peptide 893 (peptide)
peptide: VPKGWRFHEMSYS
modifications: N-terminal acetyl (Ac); C-terminal amide; L-Trp at 5; D-isomers at all other residues except Gly 4
B11: peptide 890 (peptide)
peptide: VPKGWRXHEXSYS
modifications: N-terminal acetyl (Ac); C-terminal amide; D-Cha at 7; D-buthionine at 10; D-isomers at all residues except Gly 4
B12: (Stearyl) HfRW (820) (peptide)
peptide: Stearyl-H[dF]RW-NH2
B13: (Ph(CH2)3CO) HfRW (819) (peptide)
peptide: {Butanoyl(4-Ph)}-H[dF]RW-NH2

What follows are binders tested against mouse MC1R (on murine B16-F1 melanoma cells) (mouse, UniProt Q01727 1-315) (assay: cell-based or functional assay).
mouse MC1R (on murine B16-F1 melanoma cells), sequence (Q01727 whole entry): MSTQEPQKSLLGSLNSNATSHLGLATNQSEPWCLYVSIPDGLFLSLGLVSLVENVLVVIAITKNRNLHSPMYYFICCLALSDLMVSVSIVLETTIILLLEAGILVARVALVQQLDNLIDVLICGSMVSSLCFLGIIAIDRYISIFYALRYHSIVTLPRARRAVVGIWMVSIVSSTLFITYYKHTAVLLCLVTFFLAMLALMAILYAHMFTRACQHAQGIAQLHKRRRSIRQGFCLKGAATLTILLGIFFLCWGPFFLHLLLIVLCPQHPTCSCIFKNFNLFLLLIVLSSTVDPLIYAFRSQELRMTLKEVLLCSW

EC50, cAMP in B16-F1 cells | Binder
212000 nM | B1
2000 nM | B2
300 nM | B3
130 nM | B4
14 nM | B5
9700 nM | B6
21 nM | B7
2 nM | B8
23 nM | B9
270 nM | B10
3600 nM | B11

The binders below were run against T1, melanocortin 1 receptor (MC1R) (UniProt Q01726 1-317, limits assumed) (assay: 125I-NDP-MSH competition, HEK293 membranes).
T1 construct: whole, on cells; Used as membrane preparations, not whole cells; also called MCR-1; MCR1
T1 sequence (Q01726 whole entry): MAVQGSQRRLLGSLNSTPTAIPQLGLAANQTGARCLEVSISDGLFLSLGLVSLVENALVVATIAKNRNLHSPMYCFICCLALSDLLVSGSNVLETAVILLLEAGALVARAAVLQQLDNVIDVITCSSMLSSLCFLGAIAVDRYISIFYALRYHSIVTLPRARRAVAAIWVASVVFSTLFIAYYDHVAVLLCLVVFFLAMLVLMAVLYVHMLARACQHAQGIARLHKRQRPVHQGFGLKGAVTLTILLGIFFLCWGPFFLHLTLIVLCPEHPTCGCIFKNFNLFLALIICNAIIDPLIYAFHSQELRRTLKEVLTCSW
Description: (§1) The mixtures were filtered through 96-well GFC filters (Millipore, Billerica, Mass.), washed 3 times with binding buffer without BSA, dried and counted.

Ki | Binder
1.3 nM | B12
0.07 nM | B13
0.51 nM | B7

What follows are binders tested against T2, melanocortin 3 receptor (MC3R) (UniProt P41968 1-323, limits assumed) (assay: 125I-NDP-MSH competition, HEK293 membranes).
T2 construct: whole, on cells; Membrane preparations; also called MCR-3
T2 sequence (P41968 whole entry): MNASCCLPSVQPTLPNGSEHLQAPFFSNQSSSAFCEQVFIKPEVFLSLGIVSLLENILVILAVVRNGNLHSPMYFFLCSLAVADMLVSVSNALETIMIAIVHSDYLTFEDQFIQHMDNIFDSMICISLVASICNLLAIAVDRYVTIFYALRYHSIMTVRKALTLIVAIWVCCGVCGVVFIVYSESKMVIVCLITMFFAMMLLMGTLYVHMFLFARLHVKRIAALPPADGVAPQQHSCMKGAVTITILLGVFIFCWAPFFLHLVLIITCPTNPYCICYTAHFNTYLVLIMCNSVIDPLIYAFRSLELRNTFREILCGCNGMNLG
Description: as §1

Ki | Binder
1370 nM | B12
277 nM | B13

The binders below were run against T3, melanocortin 5 receptor (MC5R) (UniProt P33032 1-325, limits assumed) (assay: 125I-NDP-MSH competition, HEK293 membranes).
T3 construct: whole, on cells; Membrane preparations; also called MCR-5
T3 sequence (P33032 whole entry): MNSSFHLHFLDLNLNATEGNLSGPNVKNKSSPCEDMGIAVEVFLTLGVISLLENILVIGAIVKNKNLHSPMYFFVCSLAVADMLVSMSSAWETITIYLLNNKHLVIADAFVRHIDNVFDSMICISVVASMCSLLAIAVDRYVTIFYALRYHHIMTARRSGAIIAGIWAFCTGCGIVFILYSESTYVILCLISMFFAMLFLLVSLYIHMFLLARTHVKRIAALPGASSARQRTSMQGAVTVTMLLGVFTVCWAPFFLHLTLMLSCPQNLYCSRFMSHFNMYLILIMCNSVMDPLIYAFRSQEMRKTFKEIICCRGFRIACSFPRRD
Description: as §1

Ki | Binder
860 nM | B12
~3000 nM | B13
